Measurements from article PMC11405395 (The EMBO Journal, 2024).

Legend:
Conditions in all cases: both partners purified
[1] = target: T1, CMGE (budding yeast CMG helicase, Cdc45-Mcm2-7-GINS, together with DNA polymerase ε) (S. cerevisiae, UniProt P29469 1-868; P24279 1-971; P30665 1-933; P29496 1-775; P53091 1-1017; P38132 …); assay: co-IP; purified proteins mixed: 1–10 nM Rrm3/Rrm3N-BacPif1/BacPif1 with 15 nM CMG and 30 nM Pol ε, 10 min on ice; anti-Sld5 beads, 30 min 4 °C; 25 mM Hepes-KOH pH 7.6, 400 mM KOAc, 0.02% NP-40-S, 0.1 mg/mL BSA, 1 mM DTT, 10 mM Mg(OAc)2; immunoblotting
T1 construct: Mcm2, S. cerevisiae, subunit of CMG; Mcm3, S. cerevisiae, subunit of CMG (CBP-TEV-MCM3); Mcm4, S. cerevisiae, subunit of CMG; Mcm5, S. cerevisiae, subunit of CMG; Mcm6, S. cerevisiae, subunit of CMG; Mcm7, S. cerevisiae, subunit of CMG; Cdc45, S. cerevisiae, subunit of CMG (CDC45iFLAG2, internal FLAG tag; detected by anti-FLAG immunoblotting); Sld5, S. cerevisiae, GINS subunit of CMG …

[2] = target: T2, DNA polymerase ε (Pol2, Dpb2, Dpb3, Dpb4), S. cerevisiae (S. cerevisiae, UniProt P21951 1-2222; P24482 1-689; P27344 1-201; Q04603 1-196); assay: co-IP; purified proteins mixed: 10 nM FLAG-Rrm3 with 15 nM Pol ε, 10 min on ice; anti-FLAG M2 magnetic beads; 25 mM Hepes-KOH pH 7.6, 400 mM KOAc, 0.02% NP-40-S, 0.1 mg/mL BSA, 1 mM DTT, 10 mM Mg(OAc)2; immunoblotting
T2 construct: Pol2, catalytic subunit of DNA polymerase ε, S. cerevisiae; Dpb2, second largest subunit of DNA polymerase ε, S. cerevisiae; Dpb3, subunit of DNA polymerase ε, S. cerevisiae; Dpb4, subunit of DNA polymerase ε, S. cerevisiae (DPB4-TEV-CBP); also called Polε; Pol ε; source: S. cerevisiae strain yAJ2, purified as previously described (Yeeles et al, 2015); copies: + + +

[3] = target: T3, Homo sapiens DNA polymerase ε (POLE1, POLE2, POLE3, POLE4) (human, UniProt Q07864 1-2286; P56282 1-527; Q9NRF9 1-147; Q9NR33 1-117); assay: co-IP; purified proteins mixed: 10 nM RTEL1-FLAG with 15 nM hsPol ε, 10 min on ice; anti-FLAG M2 magnetic beads; 25 mM Hepes-KOH pH 7.6, 200 mM KOAc, 0.02% NP-40-S, 0.1 mg/mL BSA, 1 mM DTT, 10 mM Mg(OAc)2; immunoblotting
T3 construct: POLE1 (catalytic subunit of DNA polymerase ε), human; POLE2 (homologue of budding yeast Dpb2), human (PolE2_tev_2XFLAG; tag removed with TEV protease); POLE3, human; POLE4, human; The methods call the removed tag 3FLAG, the strain and plasmid 2XFLAG; also called hsPOL ε; POL ε; source: S. cerevisiae strain ySP061, purified (anti-FLAG M2 resin, TEV cleavage, MonoQ, Superdex 200); not shown: …

[4] = target: T4, Homo sapiens CMG helicase (CDC45-MCM2-7-GINS) (human, UniProt P49736 1-904; P25205 1-808; P33991 1-863; P33992 1-734; Q14566 1-821; P33993 …); assay: co-IP; purified proteins mixed: 10 nM RTEL1-FLAG with 15 nM hsCMG, 10 min on ice; anti-FLAG M2 magnetic beads; 25 mM Hepes-KOH pH 7.6, 100 mM KOAc, 0.02% NP-40-S, 0.1 mg/mL BSA, 1 mM DTT, 10 mM Mg(OAc)2; immunoblotting
T4 construct: MCM2, human, subunit of CMG; MCM3, human, subunit of CMG; MCM4, human, subunit of CMG; MCM5, human, subunit of CMG; MCM6, human, subunit of CMG; MCM7, human, subunit of CMG; CDC45, human, subunit of CMG; SLD5 (GINS4), human, GINS subunit of CMG (PrA-3TEV-HsSld5; eluted from IgG Sepharose with TEV protease); PSF1 (GINS1), human, GINS subunit of CMG; PSF2 (GINS2), human, GINS subunit of CMG; PSF3 …

T3 sequence (Q07864 whole entry, chain 1 of 4): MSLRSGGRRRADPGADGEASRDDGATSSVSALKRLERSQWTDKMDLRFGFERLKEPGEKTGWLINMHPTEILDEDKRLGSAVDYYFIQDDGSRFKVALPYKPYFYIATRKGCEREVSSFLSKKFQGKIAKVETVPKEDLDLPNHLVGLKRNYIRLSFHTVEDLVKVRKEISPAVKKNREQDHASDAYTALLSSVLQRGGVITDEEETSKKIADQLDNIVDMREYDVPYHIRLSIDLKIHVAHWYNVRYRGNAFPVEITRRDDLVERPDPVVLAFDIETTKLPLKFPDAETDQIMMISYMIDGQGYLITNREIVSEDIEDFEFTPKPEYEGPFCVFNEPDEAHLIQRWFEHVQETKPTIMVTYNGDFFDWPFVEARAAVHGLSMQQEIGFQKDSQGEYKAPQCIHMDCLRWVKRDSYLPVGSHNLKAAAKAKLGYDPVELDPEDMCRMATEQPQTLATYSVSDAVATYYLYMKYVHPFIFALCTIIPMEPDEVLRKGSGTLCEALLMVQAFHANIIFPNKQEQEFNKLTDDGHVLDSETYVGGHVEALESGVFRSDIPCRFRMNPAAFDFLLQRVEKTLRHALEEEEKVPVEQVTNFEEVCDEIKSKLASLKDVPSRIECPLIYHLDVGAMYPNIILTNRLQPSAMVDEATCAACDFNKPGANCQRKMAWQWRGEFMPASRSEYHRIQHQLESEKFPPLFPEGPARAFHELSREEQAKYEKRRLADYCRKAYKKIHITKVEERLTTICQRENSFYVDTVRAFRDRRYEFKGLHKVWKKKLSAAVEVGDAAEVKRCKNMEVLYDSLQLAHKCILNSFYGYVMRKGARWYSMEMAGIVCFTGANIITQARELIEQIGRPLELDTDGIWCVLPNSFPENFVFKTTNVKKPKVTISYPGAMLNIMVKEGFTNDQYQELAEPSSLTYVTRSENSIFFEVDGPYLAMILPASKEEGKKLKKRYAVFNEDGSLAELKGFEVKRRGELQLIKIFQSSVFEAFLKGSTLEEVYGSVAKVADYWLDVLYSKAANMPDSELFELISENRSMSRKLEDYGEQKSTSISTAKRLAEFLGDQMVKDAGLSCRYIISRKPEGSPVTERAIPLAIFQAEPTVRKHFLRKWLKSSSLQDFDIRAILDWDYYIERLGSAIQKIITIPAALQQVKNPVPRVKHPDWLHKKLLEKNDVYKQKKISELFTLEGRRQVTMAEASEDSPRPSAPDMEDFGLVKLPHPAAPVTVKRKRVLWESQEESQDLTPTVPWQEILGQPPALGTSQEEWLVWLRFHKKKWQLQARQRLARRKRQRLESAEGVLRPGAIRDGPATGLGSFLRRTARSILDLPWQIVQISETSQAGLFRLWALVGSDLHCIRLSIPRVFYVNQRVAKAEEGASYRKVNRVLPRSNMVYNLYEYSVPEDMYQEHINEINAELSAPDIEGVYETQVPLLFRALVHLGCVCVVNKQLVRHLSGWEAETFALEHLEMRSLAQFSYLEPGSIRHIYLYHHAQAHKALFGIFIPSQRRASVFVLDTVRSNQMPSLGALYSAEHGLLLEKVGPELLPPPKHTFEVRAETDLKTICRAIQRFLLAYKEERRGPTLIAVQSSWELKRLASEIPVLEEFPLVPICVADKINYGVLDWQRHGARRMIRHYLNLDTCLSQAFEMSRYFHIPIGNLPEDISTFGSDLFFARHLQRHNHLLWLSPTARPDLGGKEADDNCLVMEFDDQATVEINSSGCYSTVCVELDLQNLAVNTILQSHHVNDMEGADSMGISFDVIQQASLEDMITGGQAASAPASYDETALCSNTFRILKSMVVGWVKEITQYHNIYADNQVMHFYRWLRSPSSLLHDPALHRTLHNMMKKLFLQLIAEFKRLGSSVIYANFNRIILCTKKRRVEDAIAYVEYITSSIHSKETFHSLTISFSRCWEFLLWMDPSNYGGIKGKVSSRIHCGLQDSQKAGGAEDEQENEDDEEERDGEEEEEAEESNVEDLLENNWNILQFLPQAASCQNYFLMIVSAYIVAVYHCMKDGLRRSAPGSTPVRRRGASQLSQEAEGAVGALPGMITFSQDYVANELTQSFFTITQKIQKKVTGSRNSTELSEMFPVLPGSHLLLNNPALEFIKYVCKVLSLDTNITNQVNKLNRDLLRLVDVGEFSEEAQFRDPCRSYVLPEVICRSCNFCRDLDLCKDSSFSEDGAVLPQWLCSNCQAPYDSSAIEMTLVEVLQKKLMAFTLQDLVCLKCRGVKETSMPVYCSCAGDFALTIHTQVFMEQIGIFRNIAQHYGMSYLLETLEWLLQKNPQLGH
T3 sequence (P56282 whole entry, chain 2 of 4): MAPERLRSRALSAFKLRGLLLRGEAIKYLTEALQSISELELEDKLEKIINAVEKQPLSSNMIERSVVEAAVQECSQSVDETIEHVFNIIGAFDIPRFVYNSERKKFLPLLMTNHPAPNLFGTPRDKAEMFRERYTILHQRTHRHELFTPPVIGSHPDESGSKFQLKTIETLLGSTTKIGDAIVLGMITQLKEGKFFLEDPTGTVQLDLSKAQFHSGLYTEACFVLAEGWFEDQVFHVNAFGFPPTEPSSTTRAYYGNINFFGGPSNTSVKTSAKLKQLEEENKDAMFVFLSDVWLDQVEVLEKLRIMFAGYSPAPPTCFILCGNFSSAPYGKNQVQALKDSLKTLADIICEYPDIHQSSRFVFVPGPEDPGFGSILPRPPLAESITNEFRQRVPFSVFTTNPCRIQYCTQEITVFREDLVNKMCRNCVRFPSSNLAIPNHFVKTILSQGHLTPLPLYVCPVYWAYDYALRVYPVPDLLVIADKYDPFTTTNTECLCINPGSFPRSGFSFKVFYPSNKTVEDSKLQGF
T3 sequence (Q9NRF9 whole entry, chain 3 of 4): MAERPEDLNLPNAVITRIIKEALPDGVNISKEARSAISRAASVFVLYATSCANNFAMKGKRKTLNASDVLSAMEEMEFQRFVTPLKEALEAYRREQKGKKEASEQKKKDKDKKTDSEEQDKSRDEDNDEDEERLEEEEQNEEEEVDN
T3 sequence (Q9NR33 whole entry, chain 4 of 4): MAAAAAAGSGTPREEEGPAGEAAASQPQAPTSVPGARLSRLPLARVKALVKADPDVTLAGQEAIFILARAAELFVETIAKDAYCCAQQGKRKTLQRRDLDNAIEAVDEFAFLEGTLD

| Binder | binding result [1] | binding result [2] | binding result [3] | binding result [4] |
| --- | --- | --- | --- | --- |
| Rrm3-2E (Rrm3 K118E, R122E) (enzyme, S. cerevisiae, UniProt P38766 1-723, looked up, Built in the wild-type expression plasmid pTDK15 (pOO8); also called 3FLAG-TEV-RRM3-2E; source: S. cerevisiae strain yOO4, purified (anti-FLAG M2 resin, HiTrap heparin); not shown: 3FLAG, N-terminal, kept) MFRSHASGNKKQWSKRSSNGSTPAASASGSHAYRQQTLSSFFMGCGKKSAAASKNSTTIIDLESGDEGNRNITAPPRPRLIRNNSSSLFSQSQGSFGDDDPDAEFKKLVDVPRLNSYEKSSESLSMTSSLHKTASASTTQKTYHFDEDETLREVTSVKSNSRQLSFTSTINIEDSSMKLSTDSERPAKRSKPSMEFQGLKLTVPKKIKPLLRKTVSNMDSMNHRSASSPVVLTMEQERVVNLIVKKRTNVFYTGSAGTGKSVILQTIIRQLSSLYGKESIAITASTGLAAVTIGGSTLHKWSGIGIGNKTIDQLVKKIQSQKDLLAAWRYTKVLIIDEISMVDGNLLDKLEQIARRIRKNDDPFGGIQLVLTGDFFQLPPVAKKDEHNVVKFCFESEMWKRCIQKTILLTKVFRQQDNKLIDILNAIRYGELTVDIAKTIRNLNRDIDYADGIAPTELYATRREVELSNVKKLQSLPGDLYEFKAVDNAPERYQAILDSSLMVEKVVALKEDAQVMMLKNKPDVELVNGSLGKVLFFVTESLVVKMKEIYKIVDDEVVMDMRLVSRVIGNPLLKESKEFRQDLNARPLARLERLKILINYAVKISPHKEKFPYVRWTVGKNKYIHELMVPERFPIDIPRENVGLERTQIPLMLCWALSIHKAQGQTIQRLKVDLRRIFEAGQVYVALSRAVTMDTLQVLNFDPGKIRTNERVKDFYKRLETLK | binds | binds | – | – |
| RTEL1 ΔE813-E821 ΔR875-V881 (enzyme, human, UniProt Q9NZ71-1 1-1219, looked up, Plasmid pSP53; also called hsRTEL1ΔE813-E821 ΔR875-V881; source: S. cerevisiae strain ySP070, purified (anti-FLAG M2 resin, HiLoad Superdex 200); not shown: 2XFLAG, C-terminal, kept) MPKIVLNGVTVDFPFQPYKCQQEYMTKVLECLQQKVNGILESPTGTGKTLCLLCTTLAWREHLRDGISARKIAERAQGELFPDRALSSWGNAAAAAGDPIACYTDIPKIIYASRTHSQLTQVINELRNTSYRPKVCVLGSREQLCIHPEVKKQESNHLQIHLCRKKVASRSCHFYNNVEEKSLEQELASPILDIEDLVKSGSKHRVCPYYLSRNLKQQADIIFMPYNYLLDAKSRRAHNIDLKGTVVIFDEAHNVEKMCEESASFDLTPHDLASGLDVIDQVLEEQTKAAQQGEPHPEFSADSPSPGLNMELEDIAKLKMILLRLEGAIDAVELPGDDSGVTKPGSYIFELFAEAQITFQTKGCILDSLDQIIQHLAGRAGVFTNTAGLQKLADIIQIVFSVDPSEGSPGSPAGLGALQSYKVHIHPDAGHRRTAQRSDAWSTTAARKRGKVLSYWCFSPGHSMHELVRQGVRSLILTSGTLAPVSSFALEMQIPFPVCLENPHIIDKHQIWVGVVPRGPDGAQLSSAFDRRFSEECLSSLGKALGNIARVVPYGLLIFFPSYPVMEKSLEFWRARDLARKMEALKPLFVEPRSKGSFSETISAYYARVAAPGSTGATFLAVCRGKASEGLDFSDTNGRGVIVTGLPYPPRMDPRVVLKMQFLDEMKGQGGAGGQFLSGQEWYRQQASRAVNQAIGRVIRHRQDYGAVFLCDHRFAFADARAQLPSWVRPHVRVYDNFGHVIRDVAQFFRVAERTMPAPAPRATAPSVRGEDAVSEAKSPGPFFSTRKAKSLDLHVPSLKQRSSGSPAAGDPQEPVPARQRPRGLLAALEHSEQRAGSPGEEQAHSCSTLSLLSEKRPAEEPRGGSHPEEPVAGAQTDRAKLFMVAVKQELSQANFATFTQALQDYKGSDDFAALAACLGPLFAEDPKKHNLLQGFYQFVRPHHKQQFEEVCIQLTGRGCGYRPEHSIPRRQRAQPVLDPTGRTAPDPKLTVSTAAAQQLDPQEHLNQGRPHLSPRPPPTGDPGSQPQWGSGVPRAGKQGQHAVSAYLADARRALGSAGCSQLLAALTAYKQDDDLDKVLAVLAALTTAKPEDFPLLHRFSMFVRPHHKQRFSQTCTDLTGRPYPGMEPPGPQEERLAVPPVLTHRAPQPGPSRSEKTGKTQSKISSFLRQRPAGTVGAGGEDAGPSQSSGPPHGPAASEWGL | – | – | binds | – |
| RTEL1ΔE813-E821 (enzyme, human, UniProt Q9NZ71-1 1-1219, looked up, Plasmid pSP51; also called hsRTEL1ΔE813-E821; source: S. cerevisiae strain ySP075, purified (anti-FLAG M2 resin, HiLoad Superdex 200); not shown: 2XFLAG, C-terminal, kept) MPKIVLNGVTVDFPFQPYKCQQEYMTKVLECLQQKVNGILESPTGTGKTLCLLCTTLAWREHLRDGISARKIAERAQGELFPDRALSSWGNAAAAAGDPIACYTDIPKIIYASRTHSQLTQVINELRNTSYRPKVCVLGSREQLCIHPEVKKQESNHLQIHLCRKKVASRSCHFYNNVEEKSLEQELASPILDIEDLVKSGSKHRVCPYYLSRNLKQQADIIFMPYNYLLDAKSRRAHNIDLKGTVVIFDEAHNVEKMCEESASFDLTPHDLASGLDVIDQVLEEQTKAAQQGEPHPEFSADSPSPGLNMELEDIAKLKMILLRLEGAIDAVELPGDDSGVTKPGSYIFELFAEAQITFQTKGCILDSLDQIIQHLAGRAGVFTNTAGLQKLADIIQIVFSVDPSEGSPGSPAGLGALQSYKVHIHPDAGHRRTAQRSDAWSTTAARKRGKVLSYWCFSPGHSMHELVRQGVRSLILTSGTLAPVSSFALEMQIPFPVCLENPHIIDKHQIWVGVVPRGPDGAQLSSAFDRRFSEECLSSLGKALGNIARVVPYGLLIFFPSYPVMEKSLEFWRARDLARKMEALKPLFVEPRSKGSFSETISAYYARVAAPGSTGATFLAVCRGKASEGLDFSDTNGRGVIVTGLPYPPRMDPRVVLKMQFLDEMKGQGGAGGQFLSGQEWYRQQASRAVNQAIGRVIRHRQDYGAVFLCDHRFAFADARAQLPSWVRPHVRVYDNFGHVIRDVAQFFRVAERTMPAPAPRATAPSVRGEDAVSEAKSPGPFFSTRKAKSLDLHVPSLKQRSSGSPAAGDPQEPVPARQRPRGLLAALEHSEQRAGSPGEEQAHSCSTLSLLSEKRPAEEPRGGRKKIRLVSHPEEPVAGAQTDRAKLFMVAVKQELSQANFATFTQALQDYKGSDDFAALAACLGPLFAEDPKKHNLLQGFYQFVRPHHKQQFEEVCIQLTGRGCGYRPEHSIPRRQRAQPVLDPTGRTAPDPKLTVSTAAAQQLDPQEHLNQGRPHLSPRPPPTGDPGSQPQWGSGVPRAGKQGQHAVSAYLADARRALGSAGCSQLLAALTAYKQDDDLDKVLAVLAALTTAKPEDFPLLHRFSMFVRPHHKQRFSQTCTDLTGRPYPGMEPPGPQEERLAVPPVLTHRAPQPGPSRSEKTGKTQSKISSFLRQRPAGTVGAGGEDAGPSQSSGPPHGPAASEWGL | – | – | binds | binds |
